This note sets out measurements from US20240270841A1 (LG CHEM, published 2024).

Test [1] addresses T1, LILRB1 expressed on the surface of human natural killer cell KHYG-1 (human, UniProt Q8NHL6 24-650).
T1 construct: whole, on cells; also called LILRB1 on KHYG-1 cells; human NK cells (surface)
Kind of test: flow cytometry (iQue) on KHYG-1 NK cells, antibody 50 ug/mL. The protocol: In order to test whether or not 93 antibodies selected in Example 1.4 bind LILRB1 expressed on surface of immune cells, natural killer cell (NK cell) surface binding assay was performed. A human NK cell, KHYG-1 cell (JCRB) was cultured in RPMI 1640 medium (Gibco) supplemented with 10%(w/v) of FBS (Gibco) and 100 U/mL of interleukin-2 (Novartis). KHYG-1 cells were added to a U-bottom 96-well tissue culture plate (BD Falcon) at the amount of 5×10⁴ cells/well. Each of the selected antibodies was added to the well to the final concentration of 50 μg/mL per well and incubated at 4° C. for 1 hour.
In order to see the level of LILRB1-specific binding of the selected antibodies, a human IgG4 isotype control antibody (Biolegend) was treated in the same manner. After washing with FACS buffer, the cells were treated with an anti-human Fc-biotin antibody (life technologies) and incubated at 4° C. for 1 hour. After washing with FACS buffer, the cells were treated with streptavidin PE (BD Pharmigen) and incubated at 4° C. for 30 minutes. After washing with FACS buffer, the cells were resuspended and subjected to analysis using iQue screener (Sartorius).
(In general: A flow cytometer gives signals particle by particle.)

Test [2] has as its target T2, human LILRB1 protein (LILRB1-His, RnD systems Cat. No. 8989-T2) (human, UniProt Q8NHL6 24-458).
T2 construct: Bought protein; also called human LILRB1-His; not shown: His tag
Kind of test: SPR (Biacore T200), antibody captured by anti-human IgG (Fc), LILRB1-His injected. The protocol:
The binding affinities of the 93 antibodies, which were selected in Example 1.3, to the antigen, LILRB1, were measured using Biacore T200 (GE healthcare). An anti-human IgG (Fc) antibody (GE healthcare, Cat. No. BR-1008-39, final concentration of 25 μg/mL) was flowed at the flow rate of 5 μL/min for 360 seconds to be immobilized at 5000-7000 RU on Series S Sensor Chip CM5 (GE healthcare, Cat. No. BR-1005-30) using Amine Coupling Kit (GE healthcare, Cat. No. BR-1000-508).
(SPR reads the build-up and loss of mass on a sensor chip optically.)

Test [3] deals with T3, human LILRB5 overexpressed on CHO cells (human, UniProt O75023 24-590).
T3 construct: Full-length protein expressed in CHO cells; also called NP_006831
T3 sequence (O75023 24-590 P542R limits assumed): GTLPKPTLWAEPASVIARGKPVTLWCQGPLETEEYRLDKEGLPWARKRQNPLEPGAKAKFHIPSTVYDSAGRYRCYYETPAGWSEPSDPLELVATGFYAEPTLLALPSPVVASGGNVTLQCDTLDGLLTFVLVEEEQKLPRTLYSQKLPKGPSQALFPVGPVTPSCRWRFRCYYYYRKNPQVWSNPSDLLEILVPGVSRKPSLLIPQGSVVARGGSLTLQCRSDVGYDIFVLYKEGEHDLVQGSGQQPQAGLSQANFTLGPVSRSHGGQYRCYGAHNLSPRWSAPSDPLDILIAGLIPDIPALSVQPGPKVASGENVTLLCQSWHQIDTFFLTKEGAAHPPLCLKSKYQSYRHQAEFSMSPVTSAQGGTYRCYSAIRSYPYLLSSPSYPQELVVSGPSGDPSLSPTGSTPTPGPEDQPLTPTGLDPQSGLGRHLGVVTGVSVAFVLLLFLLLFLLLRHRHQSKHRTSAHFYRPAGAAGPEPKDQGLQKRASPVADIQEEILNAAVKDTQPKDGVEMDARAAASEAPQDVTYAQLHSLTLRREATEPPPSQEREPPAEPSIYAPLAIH
Kind of test: flow cytometry (iQue screener), CHO cells overexpressing LILRB5, anti-human Fc-biotin + streptavidin-PE [panel LILRB5]. How it is done:
(§1) In order to confirm whether or not the selected antibodies bind to human LILR family proteins other than LILRB1, a cell surface binding assay was performed. The CHO cells (prepared in Example 5) expressing each of various LILR family proteins on surface were added to U-bottom 96-well tissue culture plate (BD Falcon) at the amount of 1×10⁵ cells/well. The cells in each well were treated with the selected antibody in the final concentration of 20 ug/mL and incubated at 4° C. for 60 minutes. After washing with FACS buffer, the cells were treated with anti-human Fc-biotin antibody (Invitrogen) and incubated at 4° C. for 30 minutes. After washing with FACS buffer, the cells were treated with streptavidin (BD Pharmigen) labeled with PE or FITC fluorescence and incubated at 4° C. for 30 minutes. After washing with FACS buffer, the cells were resuspended and subjected to analysis using iQue screener (Sartorius). The cells treated with each LILR protein specific antibody (Table 27) were used as a positive control, and the cells treated with human IgG4 isotype control antibody (Biolegend) were used as a negative control.

The target of test [4] is T4, human LILRB2 overexpressed on CHO cells (human, UniProt Q8N423 22-597).
T4 construct: Full-length protein expressed in CHO cells; also called AAH36827
Kind of test: flow cytometry (iQue screener), CHO cells overexpressing LILRB2, anti-human Fc-biotin + streptavidin-PE [panel LILRB2]. The protocol:
as §1

Test [5] deals with T5, human LILRA2 overexpressed on CHO cells (human, UniProt Q8N149 24-483).
T5 construct: Full-length protein expressed in CHO cells; also called AAH17412
Kind of test: flow cytometry (iQue screener), CHO cells overexpressing LILRA2, anti-human Fc-biotin + streptavidin-PE [panel LILRA2]. How it is done: as §1

Test [6] deals with T6, human LILRA4 overexpressed on CHO cells (human, UniProt P59901 24-499).
T6 construct: Full-length protein expressed in CHO cells; also called NP_036408
T6 sequence (P59901 other isoform, or with tags, fused parts or gaps limits assumed): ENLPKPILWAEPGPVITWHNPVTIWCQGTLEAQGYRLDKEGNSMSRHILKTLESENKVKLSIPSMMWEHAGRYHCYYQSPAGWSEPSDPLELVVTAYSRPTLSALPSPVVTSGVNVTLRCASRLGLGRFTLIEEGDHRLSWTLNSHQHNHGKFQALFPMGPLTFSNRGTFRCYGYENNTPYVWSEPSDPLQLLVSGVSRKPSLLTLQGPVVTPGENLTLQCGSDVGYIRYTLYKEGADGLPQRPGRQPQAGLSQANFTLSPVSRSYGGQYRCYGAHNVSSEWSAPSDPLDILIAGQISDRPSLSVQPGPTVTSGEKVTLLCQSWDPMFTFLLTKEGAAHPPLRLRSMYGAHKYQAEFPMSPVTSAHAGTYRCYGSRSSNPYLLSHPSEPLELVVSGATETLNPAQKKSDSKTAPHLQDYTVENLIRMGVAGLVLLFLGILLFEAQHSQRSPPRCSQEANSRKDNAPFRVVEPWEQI
Kind of test: flow cytometry (iQue screener), CHO cells overexpressing LILRA4, anti-human Fc-biotin + streptavidin-PE [panel LILRA4]. How it is done:
as §1

In test [7] the target is T7, human LILRB3 overexpressed on CHO cells (human, UniProt O75022 24-631).
T7 construct: Full-length protein expressed in CHO cells; also called XP_006726377
T7 sequence (O75022 other isoform, or with tags, fused parts or gaps limits assumed): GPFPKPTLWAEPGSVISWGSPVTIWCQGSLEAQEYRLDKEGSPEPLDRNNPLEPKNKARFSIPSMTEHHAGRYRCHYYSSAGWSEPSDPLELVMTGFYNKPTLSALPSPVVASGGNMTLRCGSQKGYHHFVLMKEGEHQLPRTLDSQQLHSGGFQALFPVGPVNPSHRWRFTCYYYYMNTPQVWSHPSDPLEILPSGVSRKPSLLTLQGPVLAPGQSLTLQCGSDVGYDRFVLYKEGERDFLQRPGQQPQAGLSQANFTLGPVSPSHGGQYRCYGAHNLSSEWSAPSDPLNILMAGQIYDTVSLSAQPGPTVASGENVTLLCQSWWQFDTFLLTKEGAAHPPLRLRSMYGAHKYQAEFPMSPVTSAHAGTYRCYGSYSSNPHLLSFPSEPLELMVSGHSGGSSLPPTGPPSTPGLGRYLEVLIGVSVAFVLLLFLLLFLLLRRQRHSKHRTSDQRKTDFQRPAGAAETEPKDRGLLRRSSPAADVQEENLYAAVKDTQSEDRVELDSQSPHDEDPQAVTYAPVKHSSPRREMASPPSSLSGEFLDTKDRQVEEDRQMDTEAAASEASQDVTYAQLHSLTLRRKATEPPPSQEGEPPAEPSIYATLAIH
Kind of test: flow cytometry (iQue screener), CHO cells overexpressing LILRB3, anti-human Fc-biotin + streptavidin-PE [panel LILRB3]. The protocol:
as §1

Test [8] addresses T8, human LILRA5 overexpressed on CHO cells (human, UniProt A6NI73 42-299).
T8 construct: Full-length protein expressed in CHO cells; also called NP_067073
Kind of test: flow cytometry (iQue screener), CHO cells overexpressing LILRA5, anti-human Fc-biotin + streptavidin-PE [panel LILRA5]. The protocol:
as §1

Test [9] has as its target T9, human LILRB4 overexpressed on CHO cells (human, UniProt Q8NHJ6 22-448).
T9 construct: Full-length protein expressed in CHO cells; also called NP_001265355
Kind of test: flow cytometry (iQue screener), CHO cells overexpressing LILRB4, anti-human Fc-biotin + streptavidin-PE [panel LILRB4]. The protocol: as §1

In test [10] the target is T10, human LILRA3 overexpressed on CHO cells (human, UniProt Q8N6C8 24-439).
T10 construct: Full-length protein expressed in CHO cells; also called AAH28208
T10 sequence (Q8N6C8 24-439 A105V limits assumed): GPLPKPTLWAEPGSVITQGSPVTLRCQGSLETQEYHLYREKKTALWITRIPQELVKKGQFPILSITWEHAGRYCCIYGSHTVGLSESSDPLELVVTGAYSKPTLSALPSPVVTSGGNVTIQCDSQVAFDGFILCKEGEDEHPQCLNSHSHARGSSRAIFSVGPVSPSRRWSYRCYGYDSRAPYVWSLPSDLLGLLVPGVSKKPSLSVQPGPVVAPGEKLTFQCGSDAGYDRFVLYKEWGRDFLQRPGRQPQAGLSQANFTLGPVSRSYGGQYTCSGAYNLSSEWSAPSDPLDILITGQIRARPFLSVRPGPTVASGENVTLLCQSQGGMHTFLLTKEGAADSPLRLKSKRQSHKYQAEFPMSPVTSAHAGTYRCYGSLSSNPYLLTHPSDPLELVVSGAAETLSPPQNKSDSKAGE
Kind of test: flow cytometry (iQue screener, BL1-H channel), CHO cells overexpressing LILRA3, anti-human Fc-biotin + labelled streptavidin [panel LILRA3]. The protocol: as §1

Test [11] has as its target T11, human LILRB1 overexpressed on CHO cells (human, UniProt Q8NHL6 24-650).
T11 construct: Full-length protein expressed from a vector in CHO cells; also called AAH15731
Kind of test: flow cytometry (iQue) on CHO cells overexpressing LILRB1, threefold dilutions. The protocol: In order to determine EC₅₀ values of the antibodies prepared in Examples 1 and 4 for binding to human LILRB1-overexpressing cell lines, a cell surface binding assay was performed. Representing the prepared antibodies, EC₅₀ values of E3.1 and H11 antibodies were measured. The CHO cells prepared in Example 5, which overexpress LILRB1 on surface, were added to U-bottom 96-well tissue culture plate (BD Falcon) at the amount of 1×10⁵ cells/well. Threefold serial dilutions of E3.1 and H11 antibodies were prepared starting from the final concentrations of 600 ug/mL and 27 ug/mL, respectively. The cells were treated with each of the diluted antibodies and incubated at 4° C. for 60 minutes. After washing with FACS buffer, the cells were treated with anti-human Fc-biotin antibody (Invitrogen) and incubated at 4° C. for 30 minutes. After washing with FACS buffer, the cells were treated with streptavidin (BD Pharmigen) labeled with PE fluorescence and incubated at 4° C. for 30 minutes. After washing with FACS buffer, the cells were resuspended and subjected to analysis using iQue screener (Sartorius). EC₅₀ values were calculated using nonlinear regression formula of GraphPad Prism software, and the obtained results are shown in Table 28: […]

In test [12] the target is T12, human LILRA6 overexpressed on CHO cells (human, UniProt Q6PI73 24-481).
T12 construct: Full-length protein expressed in CHO cells; also called NP_001347096
T12 sequence (Q6PI73 24-481 limits assumed): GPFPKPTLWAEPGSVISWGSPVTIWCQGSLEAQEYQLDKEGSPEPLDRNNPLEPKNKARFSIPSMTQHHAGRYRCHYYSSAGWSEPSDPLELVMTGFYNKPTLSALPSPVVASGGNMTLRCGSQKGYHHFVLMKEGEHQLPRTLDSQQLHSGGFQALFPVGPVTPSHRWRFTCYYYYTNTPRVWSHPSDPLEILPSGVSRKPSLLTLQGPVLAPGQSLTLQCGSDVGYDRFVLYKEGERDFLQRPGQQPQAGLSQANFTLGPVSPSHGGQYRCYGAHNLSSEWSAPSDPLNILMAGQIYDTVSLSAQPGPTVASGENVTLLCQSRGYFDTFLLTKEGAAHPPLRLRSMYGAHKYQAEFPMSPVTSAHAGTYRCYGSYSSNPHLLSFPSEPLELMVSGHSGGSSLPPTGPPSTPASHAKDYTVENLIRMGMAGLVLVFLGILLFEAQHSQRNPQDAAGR
Kind of test: flow cytometry (iQue screener), CHO cells overexpressing LILRA6, anti-human Fc-biotin + streptavidin-PE [panel LILRA6]. How it is done: as §1

The target in test [13] is T13, human LILRA1 overexpressed on CHO cells (human, UniProt O75019 17-489).
T13 construct: Full-length protein expressed in CHO cells; also called NP_006854
Kind of test: flow cytometry (iQue screener), CHO cells overexpressing LILRA1, anti-human Fc-biotin + streptavidin-PE [panel LILRA1]. The protocol: as §1

T1 sequence (Q8NHL6 24-650): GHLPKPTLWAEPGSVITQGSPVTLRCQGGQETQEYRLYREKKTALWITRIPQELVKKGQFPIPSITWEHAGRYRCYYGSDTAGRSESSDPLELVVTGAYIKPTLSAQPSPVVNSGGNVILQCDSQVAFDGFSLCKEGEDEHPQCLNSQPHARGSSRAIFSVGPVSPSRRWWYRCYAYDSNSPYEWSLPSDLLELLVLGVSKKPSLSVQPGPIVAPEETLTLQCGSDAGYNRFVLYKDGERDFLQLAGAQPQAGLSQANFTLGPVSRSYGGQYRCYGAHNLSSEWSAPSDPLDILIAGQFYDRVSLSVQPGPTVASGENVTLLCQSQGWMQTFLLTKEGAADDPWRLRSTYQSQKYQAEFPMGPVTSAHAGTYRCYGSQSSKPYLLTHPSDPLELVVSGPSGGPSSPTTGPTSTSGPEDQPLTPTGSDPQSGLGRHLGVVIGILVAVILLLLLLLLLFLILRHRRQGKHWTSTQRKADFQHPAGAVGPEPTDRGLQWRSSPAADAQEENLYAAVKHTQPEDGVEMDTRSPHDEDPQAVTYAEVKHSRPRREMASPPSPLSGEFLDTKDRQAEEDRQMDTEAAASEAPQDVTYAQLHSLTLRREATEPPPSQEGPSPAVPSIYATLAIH
T2 sequence (Q8NHL6 24-458 limits assumed): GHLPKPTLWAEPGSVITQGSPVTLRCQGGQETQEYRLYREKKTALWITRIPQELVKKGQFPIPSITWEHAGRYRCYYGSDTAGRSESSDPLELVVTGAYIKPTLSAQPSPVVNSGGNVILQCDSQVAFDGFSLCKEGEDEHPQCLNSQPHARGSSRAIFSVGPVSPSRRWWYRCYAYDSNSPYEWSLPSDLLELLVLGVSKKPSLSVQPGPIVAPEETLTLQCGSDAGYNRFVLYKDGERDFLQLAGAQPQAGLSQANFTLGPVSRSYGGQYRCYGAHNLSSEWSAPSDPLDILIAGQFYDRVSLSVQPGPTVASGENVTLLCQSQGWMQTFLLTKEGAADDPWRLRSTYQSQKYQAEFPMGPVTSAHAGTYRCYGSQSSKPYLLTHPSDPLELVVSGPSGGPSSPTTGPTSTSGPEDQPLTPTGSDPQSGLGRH
T11 sequence (Q8NHL6 other isoform, or with tags, fused parts or gaps limits assumed): as the sequence (Q8NHL6 24-650) above, with L45P, I119T, S132I, E602K counted along it
T9 sequence (Q8NHJ6 22-448 D223G/Q414R limits assumed): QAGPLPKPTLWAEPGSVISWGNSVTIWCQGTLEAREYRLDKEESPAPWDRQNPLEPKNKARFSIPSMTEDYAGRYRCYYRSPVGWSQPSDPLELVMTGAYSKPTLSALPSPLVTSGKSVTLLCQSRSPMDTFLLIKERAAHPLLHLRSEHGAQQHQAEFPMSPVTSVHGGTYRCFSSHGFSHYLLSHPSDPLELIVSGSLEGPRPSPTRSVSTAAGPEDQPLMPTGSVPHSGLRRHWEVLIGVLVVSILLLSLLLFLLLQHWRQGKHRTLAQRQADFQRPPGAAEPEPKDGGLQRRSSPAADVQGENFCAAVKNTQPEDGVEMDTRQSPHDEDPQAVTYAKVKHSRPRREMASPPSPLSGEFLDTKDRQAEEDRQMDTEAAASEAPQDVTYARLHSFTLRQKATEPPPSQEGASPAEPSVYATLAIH
T8 sequence (A6NI73 42-299 limits assumed): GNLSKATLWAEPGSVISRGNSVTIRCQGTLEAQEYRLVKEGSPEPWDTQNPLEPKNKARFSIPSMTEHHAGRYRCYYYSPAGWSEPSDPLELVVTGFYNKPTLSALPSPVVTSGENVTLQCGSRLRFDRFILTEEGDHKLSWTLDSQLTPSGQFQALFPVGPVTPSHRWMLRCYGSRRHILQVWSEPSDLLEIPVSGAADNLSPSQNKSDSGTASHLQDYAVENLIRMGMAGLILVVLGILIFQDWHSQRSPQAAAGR

B1: anti-LILRB1 antibody H2 (antibody, human IgG4 S228P, V domains shown)
VH: QVQLVQSGAEVKKPGASVKVSCKASGYTFTSYDIHWVRQATGQGLEWMGWISAYNGNTNYAQKLQGRVTMTTDTSTSTAYMELRSLRSDDTAVYYCARDGGDAFDIWGQGTLVTVSS
VL: SYELTQDPAVSVALGQTVRITCQGDSLRNYYASWYQQKPGQAPILVISGNNKRPSGIPDRFSGSSSGDTASLTISGAQAEDEADYYCNSLDSTYNHPIFGGGTKVTVLG
notes: human IgG4, lambda light chain; also called Antibody clone H2
For orientation: Kd means the free concentration of one partner at which half of the binding sites on the other are occupied at equilibrium, for simple one-to-one binding. Broadly, the koff is the rate constant with which the complex falls apart. Low readings indicate a long-lived complex, high ones a short-lived complex. The term kon denotes the second-order rate constant of association. For the molecule B1, in test [1], the “% of population 2” value is 29% and the “Mean Fluorescence Intensity” value came to 239000. In test [2], this molecule showed a Kd of 16.2 nM, a koff of 0.0095 s⁻¹ and a kon of 586000 M⁻¹ s⁻¹.

B2: anti-LILRB1 antibody E3.1 (antibody, human IgG4 S228P, lambda)
heavy: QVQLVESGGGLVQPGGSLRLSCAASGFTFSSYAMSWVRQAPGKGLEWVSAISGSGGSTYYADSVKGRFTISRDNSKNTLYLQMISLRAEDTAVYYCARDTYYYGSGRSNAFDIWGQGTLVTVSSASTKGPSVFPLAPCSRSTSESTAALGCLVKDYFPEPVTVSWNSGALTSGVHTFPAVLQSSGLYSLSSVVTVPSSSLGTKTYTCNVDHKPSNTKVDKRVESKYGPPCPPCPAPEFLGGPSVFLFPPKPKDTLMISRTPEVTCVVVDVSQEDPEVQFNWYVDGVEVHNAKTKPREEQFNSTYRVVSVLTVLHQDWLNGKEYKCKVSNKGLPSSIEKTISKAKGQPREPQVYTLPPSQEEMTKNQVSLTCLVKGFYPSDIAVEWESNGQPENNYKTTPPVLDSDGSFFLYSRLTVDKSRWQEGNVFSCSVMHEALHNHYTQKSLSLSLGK
light: SYELTQDPAVSVALGQTVRITCQGDSLRNFYASWYQQKSGQAPVLVMYGKNNRPSGIPDRFSGSTSGNTASLTITGAQAEDEADYYCNSRDSSGSHLTGVFGGGTKVTVLGQPKANPTVTLFPPSSEELQANKATLVCLISDFYPGAVTVAWKADGSPVKAGVETTKPSKQSNNKYAASSYLSLTPEQWKSHRSYSCQVTHEGSTVEKTVAPTECS
notes: human IgG4; heavy chain of E3; also called Antibody clone E3.1
A word on the EC50: it is the concentration needed to bring the measured effect to its halfway point. As to B2, the binding result in test [3], in test [4], in test [5], in [6], in test [7] and in test [8] was “no binding (tested: 20 ug/mL)” in each case. The binding result in test [9], in [10], in test [12] and in test [13] was “no binding (tested: 20 ug/mL)” each time. The response in test [11] was half-maximal at 7.15 nM (EC50).

B3: anti-LILRB1 antibody H11 (antibody, human IgG4 S228P, V domains shown)
VH: QVQLVQSGAEVKKPGASVKVSCKASGYTFTSYYMHWVRQAPGQGLEWMGIINPSGGSTSYAQKFQGRVTMTRDTSTSTVYMELSSLRSEDTAVYYCARDAGSSSDYWGRGTLVTVSS
VL: SYELTQDPAASVALGQTVRITCQGDSLRSYYASWYQQKPGQAPVVVIYGRNNRPSGIPDRFSGSSSGDTASLTITGAQAEDEADYYCKSRDSSGNHYVFGTGTKLTVLG
notes: human IgG4, lambda light chain; also called Antibody clone H11
Take B3: the binding result in test [3], in [6], in test [7], in test [8], in test [9] and in [10] was “no binding (tested: 20 ug/mL)” throughout. In test [12], the binding result is reported as “no binding (tested: 20 ug/mL)”. In test [1], the “% of population 2” value amounted to 32.6%. Besides, the “Mean Fluorescence Intensity” value in [1] is 245000. This molecule also came in with an EC50 in test [11] of 0.376 nM. For the same molecule, the Kd in [2] worked out at 7.62 nM. The same molecule had a koff in test [2] of 0.00226 s⁻¹. Moreover, in test [2], the kon is 296000 M⁻¹ s⁻¹.

B4: anti-LILRB1 antibody G9 (antibody, human IgG4 S228P, V domains shown)
VH: QVQLVQPGAEVKKPGESLKISCKGSGYSFTSYWIGWVRQMPGKGLEWMGIIYPGDSDTRYSPSFQGQVTISADKSISTAYLQWSSLKASDTAMYYCASQYYDGGYYMDVWGQGTLVTVSS
VL: QSALTQPASVSGSPGQSITISCTGSSSDVGGYNYVSWYQQHPGKAPKLMIYDVSNRPSGVSDRFSGSKSGNMASLTISGLQAEDEADYYCSSYTGSSTLDVLFGGGTKLTVLG
notes: human IgG4, lambda light chain; also called Antibody clone G9
Consider B4, for which, in test [1], the “% of population 2” value worked out at 41.3% and the “Mean Fluorescence Intensity” value worked out at 263000. Further, in test [2], the Kd turned out to be 3.05 nM, the koff is 0.000436 s⁻¹ and the kon worked out at 143000 M⁻¹ s⁻¹.

B5: anti-LILRB1 antibody G11 (antibody, human IgG4 S228P, V domains shown)
VH: QVQLVQSGAEVKKPGESLKISCKGSGYSFTSYWIGWVRQMPGKGLEWMGIIYPGDSDTRYSPSFQGQVTISADKSISTAYLQWSSLKASDTAMYYCASQYYDGGYYMDVWGQGTLVTVSS
VL: QSALTQPRSVSGSPGQSVTISCTGTSSDVGGYNYVSWYQQHPGKAPKLMIYDVSKRPSGVPDRFSGSKSGNTASLTISGLQAEDEADYYCSSYSSSSTLVVFGGGTKLTVLG
notes: human IgG4, lambda light chain; also called Antibody clone G11
Regarding B5, in test [1], the “% of population 2” value turned out to be 40.1% and the “Mean Fluorescence Intensity” value is 263000. In [2], this molecule gave a Kd of 45.2 nM, a koff of 0.00205 s⁻¹ and a kon of 45400 M⁻¹ s⁻¹.
